This is an account of results in patent publication US20130189255A1, “FUSIONS AND CONJUGATES OF INSULINOTROPIC AGENTS” (GLAXO GROUP LIMITED, priority 2008, published 2013).

A short description of this data set: Thermal denaturation by differential scanning calorimetry (DSC). It is filed as physicochemical. The conditions noted are these: 1 mg/ml, 20 mM citrate pH6.2, 100 mM NaCl, 180° C./hour, non-2-state model.

Procedure: Protein was dialysed overnight into 20 mM citrate pH6.2, 100 mM NaCl, filtered and then prepared at concentration of 1 mg/ml as determined by absorbance at 280 nm. Filtered dialysis buffer was used as a reference for all samples. DSC was performed at a heating rate of 180° C./hour. Before each sample a solution of 1% decon, and then buffer were injected to clean the cells and to provide instrumental baseline. Obtained traces were analysed using Origin 7 Microcal software. The DSC trace obtained from the reference buffer was subtracted from the sample trace. Precise molar concentration of the sample was used for calculations (performed automatically by Origin). Baseline setting for both upper and lower baselines linear regions before/after transition were selected and connected using cubic connect function. The resulting graph is fitted to non-2-state model, generating apparent Tm, and ΔH/ΔHv values.

lysozyme gave an appTm of 76.2 °C.
